14 molecules from patent US20250186602A1, “HUMANIZED ANTIBODY THAT BONDS TO EVA1 PROTEIN OR FUNCTIONAL FRAGMENT THEREOF, ANTIBODY-DRUG CONJUGATE AND CHIMERIC ANTIGEN RECEPTOR” (CURED INC., priority 2022, published 2025) can be followed below.

T1: hEva1-mouse Fc (human, UniProt O60487 27-154, limits assumed)
T1 construct: SPR analyte; the '1' is probably the first concentration (1 nM); also called hEva1-mouse Fc1 (so in the source); not shown: mouse Fc
T1 sequence: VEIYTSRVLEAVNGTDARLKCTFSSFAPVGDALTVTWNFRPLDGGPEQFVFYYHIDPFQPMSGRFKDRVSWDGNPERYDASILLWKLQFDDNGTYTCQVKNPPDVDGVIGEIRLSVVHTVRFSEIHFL

B1: humanized B2E5-48 antibody H3-L4 (antibody, human IgG1, V domains shown)
VH: QVQLVQSGSELKKPGASVKVSCKASGYTFTNYWMHWVRQAPGQGLEWIGEINPTNGGTDYNEGFTGRFVLSVDKSSSTAYLQISSLKAEDTAVYYCTIYTTALDYWGQGTLVTVSS
VL: DIQLTQSPSFLSASVGDRVTITCRASSSVGYMYWYQQKPGKAPKPLIYVTSNLASGVPSRFSGSGSGTEYTLTISSLQPEDFATYYCQQWSSNPPTFGQGTKLEIK
notes: Human IgG1 heavy chain and human kappa light chain vectors; made in HEK293T cells
B2: humanized B2E5-48 antibody H4-L3 (antibody, human IgG1, V domains shown)
VH: QVQLVQSGSELKKPGASVKVSCKASGYTFTNYWMHWVRQAPGQGLEWMGEINPTNGGTDYNEGFTGRFVFSVDKSVSTAYLQISSLKAEDTAVYYCTIYTTALDYWGQGTLVTVSS
VL: QIQLTQSPSFLSASVGDRVTITCRASSSVGYMYWYQQKPGKAPKPLIYVTSNLASGVPSRFSGSGSGTEYTLTISSLQPEDFATYYCQQWSSNPPTFGQGTKLEIK
notes: as for B1
B3: humanized B2E5-48 antibody H4-L4 (antibody, human IgG1, V domains shown)
VH: QVQLVQSGSELKKPGASVKVSCKASGYTFTNYWMHWVRQAPGQGLEWMGEINPTNGGTDYNEGFTGRFVFSVDKSVSTAYLQISSLKAEDTAVYYCTIYTTALDYWGQGTLVTVSS
VL: DIQLTQSPSFLSASVGDRVTITCRASSSVGYMYWYQQKPGKAPKPLIYVTSNLASGVPSRFSGSGSGTEYTLTISSLQPEDFATYYCQQWSSNPPTFGQGTKLEIK
notes: as for B1
B4: humanized B2E5-48 antibody H3-L3 (antibody, human IgG1, V domains shown)
VH: QVQLVQSGSELKKPGASVKVSCKASGYTFTNYWMHWVRQAPGQGLEWIGEINPTNGGTDYNEGFTGRFVLSVDKSSSTAYLQISSLKAEDTAVYYCTIYTTALDYWGQGTLVTVSS
VL: QIQLTQSPSFLSASVGDRVTITCRASSSVGYMYWYQQKPGKAPKPLIYVTSNLASGVPSRFSGSGSGTEYTLTISSLQPEDFATYYCQQWSSNPPTFGQGTKLEIK
notes: as for B1
B5: humanized B2E5-48 antibody H1-L4 (antibody, human IgG1, V domains shown)
VH: QVQLVQSGAEVKKPGASVKVSCKASGYTFTNYWMHWVRQAPGQGLEWIGEINPTNGGTDYNEKFQGRVTLTVDKSSSTAYMELSSLRSEDTAVYYCTIYTTALDYWGQGTLVTVSS
VL: DIQLTQSPSFLSASVGDRVTITCRASSSVGYMYWYQQKPGKAPKPLIYVTSNLASGVPSRFSGSGSGTEYTLTISSLQPEDFATYYCQQWSSNPPTFGQGTKLEIK
notes: as for B1
B6: humanized B2E5-48 antibody H2-L2 (antibody, human IgG1, V domains shown)
VH: QVQLVQSGAEVKKPGASVKVSCKASGYTFTNYWMHWVRQAPGQGLEWMGEINPTNGGTDYNEKFQGRVTMTVDKSTSTAYMELSSLRSEDTAVYYCTIYTTALDYWGQGTLVTVSS
VL: EIVLTQSPATLSLSPGERATLSCRASSSVGYMYWYQQKPGQAPRPLIYVTSNRATGIPARFSGSGSGTDYTLTISSLEPEDFAVYYCQQWSSNPPTFGQGTKLEIK
notes: Human IgG1 heavy chain and human kappa light chain vectors; made in HEK293T cells; also called B2E5-H2-L2
B7: humanized B2E5-48 antibody H2-L3 (antibody, human IgG1, V domains shown)
VH: QVQLVQSGAEVKKPGASVKVSCKASGYTFTNYWMHWVRQAPGQGLEWMGEINPTNGGTDYNEKFQGRVTMTVDKSTSTAYMELSSLRSEDTAVYYCTIYTTALDYWGQGTLVTVSS
VL: QIQLTQSPSFLSASVGDRVTITCRASSSVGYMYWYQQKPGKAPKPLIYVTSNLASGVPSRFSGSGSGTEYTLTISSLQPEDFATYYCQQWSSNPPTFGQGTKLEIK
notes: as for B1
B8: humanized B2E5-48 antibody H3-L2 (antibody, human IgG1, V domains shown)
VH: QVQLVQSGSELKKPGASVKVSCKASGYTFTNYWMHWVRQAPGQGLEWIGEINPTNGGTDYNEGFTGRFVLSVDKSSSTAYLQISSLKAEDTAVYYCTIYTTALDYWGQGTLVTVSS
VL: EIVLTQSPATLSLSPGERATLSCRASSSVGYMYWYQQKPGQAPRPLIYVTSNRATGIPARFSGSGSGTDYTLTISSLEPEDFAVYYCQQWSSNPPTFGQGTKLEIK
notes: as for B1
B9: humanized B2E5-48 antibody H2-L4 (antibody, human IgG1, V domains shown)
VH: QVQLVQSGAEVKKPGASVKVSCKASGYTFTNYWMHWVRQAPGQGLEWMGEINPTNGGTDYNEKFQGRVTMTVDKSTSTAYMELSSLRSEDTAVYYCTIYTTALDYWGQGTLVTVSS
VL: DIQLTQSPSFLSASVGDRVTITCRASSSVGYMYWYQQKPGKAPKPLIYVTSNLASGVPSRFSGSGSGTEYTLTISSLQPEDFATYYCQQWSSNPPTFGQGTKLEIK
notes: as for B1
B10: humanized B2E5-48 antibody H4-L2 (antibody, human IgG1, V domains shown)
VH: QVQLVQSGSELKKPGASVKVSCKASGYTFTNYWMHWVRQAPGQGLEWMGEINPTNGGTDYNEGFTGRFVFSVDKSVSTAYLQISSLKAEDTAVYYCTIYTTALDYWGQGTLVTVSS
VL: EIVLTQSPATLSLSPGERATLSCRASSSVGYMYWYQQKPGQAPRPLIYVTSNRATGIPARFSGSGSGTDYTLTISSLEPEDFAVYYCQQWSSNPPTFGQGTKLEIK
notes: as for B1
B11: H2-L3: humanized B2E5-48 IgG1, VH H2 (SEQ ID NO: 13), VL L3 (SEQ ID NO: 10) (antibody, V domains shown)
VH: QVQLVQSGAEVKKPGASVKVSCKASGYTFTNYWMHWVRQAPGQGLEWMGEINPTNGGTDYNEKFQGRVTMTVDKSTSTAYMELSSLRSEDTAVYYCTIYTTALDYWGQGTLVTVSS
VL: QIQLTQSPSFLSASVGDRVTITCRASSSVGYMYWYQQKPGKAPKPLIYVTSNLASGVPSRFSGSGSGTEYTLTISSLQPEDFATYYCQQWSSNPPTFGQGTKLEIK
modifications: Variable Region of Heavy Chain 2 (Humanized B2E5-48); Variable Region of Light Chain 3 (Humanized B2E5-48)
B12: H1-L4: humanized B2E5-48 IgG1, VH H1 (SEQ ID NO: 15), VL L4 (SEQ ID NO: 8) (antibody, V domains shown)
VH: QVQLVQSGAEVKKPGASVKVSCKASGYTFTNYWMHWVRQAPGQGLEWIGEINPTNGGTDYNEKFQGRVTLTVDKSSSTAYMELSSLRSEDTAVYYCTIYTTALDYWGQGTLVTVSS
VL: DIQLTQSPSFLSASVGDRVTITCRASSSVGYMYWYQQKPGKAPKPLIYVTSNLASGVPSRFSGSGSGTEYTLTISSLQPEDFATYYCQQWSSNPPTFGQGTKLEIK
modifications: Variable Region of Heavy Chain 1 (Humanized B2E5-48); Variable Region of Light Chain 4 (Humanized B2E5-48)
B13: H2-L4: humanized B2E5-48 IgG1, VH H2 (SEQ ID NO: 13), VL L4 (SEQ ID NO: 8) (antibody, V domains shown)
VH: QVQLVQSGAEVKKPGASVKVSCKASGYTFTNYWMHWVRQAPGQGLEWMGEINPTNGGTDYNEKFQGRVTMTVDKSTSTAYMELSSLRSEDTAVYYCTIYTTALDYWGQGTLVTVSS
VL: DIQLTQSPSFLSASVGDRVTITCRASSSVGYMYWYQQKPGKAPKPLIYVTSNLASGVPSRFSGSGSGTEYTLTISSLQPEDFATYYCQQWSSNPPTFGQGTKLEIK
modifications: Variable Region of Heavy Chain 2 (Humanized B2E5-48); Variable Region of Light Chain 4 (Humanized B2E5-48)
B14: H3-L2: humanized B2E5-48 IgG1, VH H3 (SEQ ID NO: 16), VL L2 (SEQ ID NO: 7) (antibody, V domains shown)
VH: QVQLVQSGSELKKPGASVKVSCKASGYTFTNYWMHWVRQAPGQGLEWIGEINPTNGGTDYNEGFTGRFVLSVDKSSSTAYLQISSLKAEDTAVYYCTIYTTALDYWGQGTLVTVSS
VL: EIVLTQSPATLSLSPGERATLSCRASSSVGYMYWYQQKPGQAPRPLIYVTSNRATGIPARFSGSGSGTDYTLTISSLEPEDFAVYYCQQWSSNPPTFGQGTKLEIK
modifications: Variable Region of Heavy Chain 3 (Humanized B2E5-48); Variable Region of Light Chain 2 (Humanized B2E5-48)

The first test concerns the target T1, hEva1-mouse Fc. The test is described as follows: SPR (BiaCore T200), single-cycle kinetics; antibody captured by anti-human IgG on CM5 chip, hEva1-mouse Fc as analyte.
Conditions: not given
The protocol: (§1) The dissociation constants and association constants of the humanized antibodies and the like were analyzed by using surface plasmon resonance (SPR, product name: BiaCore T200 (manufactured by GE healthcare)).
Specifically, first, human IgG capture antibodies were immobilized on a CM5 chip by an amine coupling method. […] Then, the kinetics analysis on the anti-Eval antibody and hEva1 was conducted by a single-cycle method using the following measurement conditions.
B1 displayed a Kd of 873 nM, a koff of 0.0138 s⁻¹ and a kon of 15800 M⁻¹ s⁻¹.

Regarding B2, binding was put at a Kd of 877 nM, the koff stood at 0.0136 s⁻¹ and the kon was determined as 15500 M⁻¹ s⁻¹.

As to B3, the Kd was 994 nM, the koff came to 0.0152 s⁻¹ and the kon is 15300 M⁻¹ s⁻¹.

The molecule B4 registered a Kd of 835 nM, a koff of 0.0125 s⁻¹ and an on-rate (kon) of 15000 M⁻¹ s⁻¹.

Regarding B5, the affinity, expressed as Kd, was 533 nM; the koff was determined as 0.00931 s⁻¹; the kon was found to be 17500 M⁻¹ s⁻¹.

B6 displayed a Kd of 467 nM, a koff of 0.0092 s⁻¹ and a kon of 19700 M⁻¹ s⁻¹.

As for B7, the Kd worked out at 428 nM, the koff amounted to 0.00886 s⁻¹ and the kon was 20700 M⁻¹ s⁻¹.

B8: the affinity, expressed as Kd, was 787 nM; the koff was found to be 0.0132 s⁻¹; the kon is 16800 M⁻¹ s⁻¹.

As to B9, binding was characterised by a dissociation constant (Kd) of 529 nM, the koff is 0.0091 s⁻¹ and the kon came to 17200 M⁻¹ s⁻¹.

For B10, the Kd was determined as 768 nM, the koff worked out at 0.0146 s⁻¹ and the kon stood at 19000 M⁻¹ s⁻¹.

The test system of the next test is hEva1-mouse Fc. The test is described as follows: Surface plasmon resonance kinetics analysis (BiaCore T200, single-cycle). It counts as binding, human. Conditions: SPR, antibody captured 5 nM, analyte hEva1-mouse Fc 1-250 nM, HBS-EP+ pH 7.4. The protocol: as §1
Specifically, first, human IgG capture antibodies were immobilized on a CM5 chip by an amine coupling method. This immobilization was conducted in both reference cells and active cells. Then, the kinetics analysis on the anti-Eval antibody and hEva1 was conducted by a single-cycle method using the following measurement conditions.
• Sample compartment temperature: 10° C. • Running buffer: HBS-EP+buffer, pH 7.4 • Capturing molecule: Human IgG antibody, reference & active cells • Ligand: Various antibodies 5 nM, active cells only • Analyte: hEva1-mouse Fc1, 5, 25, 125, 250 nM, reference & active cells • Regeneration buffer: 3M MgCl2, reference & active cells • 3 cycles of Blanks (Analyte zero concentration)
Consider B11, for which the ka is 20710 M⁻¹ s⁻¹ and the kd was 0.008858 s⁻¹.

The molecule B12 gave a ka of 17470 M⁻¹ s⁻¹ and a kd of 0.009313 s⁻¹.

B13 gave a ka of 17200 M⁻¹ s⁻¹ and a kd of 0.009101 s⁻¹.

Turning to B14, the ka was determined as 16770 M⁻¹ s⁻¹ and the kd came to 0.0132 s⁻¹.
